Assay results taken from publication PMC4627070.

T1: gp32 (gene 32 protein, ssDNA-binding protein) (bacteriophage T4, UniProt P03695 1-301)
T1 sequence: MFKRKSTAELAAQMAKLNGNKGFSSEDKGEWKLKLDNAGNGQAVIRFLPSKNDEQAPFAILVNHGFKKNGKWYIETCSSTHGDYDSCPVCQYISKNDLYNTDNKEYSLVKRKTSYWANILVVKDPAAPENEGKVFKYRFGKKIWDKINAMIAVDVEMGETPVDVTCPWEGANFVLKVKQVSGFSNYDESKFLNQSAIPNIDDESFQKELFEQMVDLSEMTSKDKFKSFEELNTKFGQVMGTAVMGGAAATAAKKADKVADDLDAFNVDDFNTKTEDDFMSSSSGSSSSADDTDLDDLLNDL


molecular target: T1, gp32 (gene 32 protein, ssDNA-binding …); test: fluorescence titration

TAATTTTT (ssDNA, 2-aminopurine at positions 2,3 (written as A)) [8P2,3] and TTTAATTT (ssDNA, 2-aminopurine at positions 4,5 (written as A)) [8P4,5] are within error of each other in Kd: 3.5 ± 0.4 µM for the first, 4.2 ± 0.4 µM for the second.

Compared with TTTTTAAT (ssDNA, 2-aminopurine at positions 6,7 (written as A)) [8P6,7], AAAAAAAA (ssDNA, 2-aminopurine at positions 2,3 (written as A)) [8A2,3] is 2.5-fold lower in Kd: 10.3 ± 1 µM for the first, 4.1 ± 0.4 µM for the second.

Binder AAAAAAAA (ssDNA, 2-aminopurine at positions 6,7 (written as A)) [8A6,7] has a Kd of 3.2 ± 0.3 µM.
